Results as given in patent US20050152926A1.
One block for each binder: values may come before it.

Columns and labels:
[1] = biological target: HLA A2 on RMA-S/A2 cells (human); test: RMA-S/A2 HLA A2 stabilisation, BB7.2 FACS; 100 µM peptide; ΔMean minus highest HepB ΔMean
[2] = biological target: HLA A2 on RMA-S/A2 cells (human); test: RMA-S/A2 HLA A2 stabilisation, BB7.2 FACS; 100 µM peptide; FIG 1(xxii)
[3] = biological target: HLA A2 on RMA-S/A2 cells (human); test: RMA-S/A2 HLA A2 stabilisation, BB7.2 FACS; 100 µM peptide; FIG 3(xxi)
[4] = biological target: HLA A2 on RMA-S/A2 cells (human); test: RMA-S/A2 HLA A2 stabilisation, BB7.2 FACS; 100 µM peptide; FIG 3(xix)
[5] = biological target: HLA A2 on RMA-S/A2 cells (human); test: RMA-S/A2 HLA A2 stabilisation, BB7.2 FACS; 100 µM peptide; FIG 3(xxv)
[6] = biological target: HLA A2 on RMA-S/A2 cells (human); test: RMA-S/A2 HLA A2 stabilisation, BB7.2 FACS; 100 µM peptide; FIG 1(xxvi)
[7] = biological target: HLA A2 on RMA-S/A2 cells (human); test: RMA-S/A2 HLA A2 stabilisation, BB7.2 FACS; 100 µM peptide; FIG 3(xxiii)
[8] = biological target: HLA A2 on RMA-S/A2 cells (human); test: RMA-S/A2 HLA A2 stabilisation, BB7.2 FACS; 100 µM peptide; FIG 2(xix)
[9] = biological target: HLA A2 on RMA-S/A2 cells (human); test: RMA-S/A2 HLA A2 stabilisation, BB7.2 FACS; 100 µM peptide; FIG 3(xxii)
[10] = biological target: HLA A2 on RMA-S/A2 cells (human); test: RMA-S/A2 HLA A2 stabilisation, BB7.2 FACS; 1 µM peptide; ΔMean minus highest HepB ΔMean
[11] = biological target: HLA A2 on RMA-S/A2 cells (human); test: RMA-S/A2 HLA A2 stabilisation, BB7.2 FACS; 1 µM peptide; FIG 1(xii)
[12] = biological target: HLA A2 on RMA-S/A2 cells (human); test: RMA-S/A2 HLA A2 stabilisation, BB7.2 FACS; 100 µM peptide; FIG 3(xxiv)
[13] = biological target: HLA A2 on RMA-S/A2 cells (human); test: RMA-S/A2 HLA A2 stabilisation, BB7.2 FACS; 100 µM peptide; FIG 1(xxi)
[14] = biological target: HLA A2 on RMA-S/A2 cells (human); test: RMA-S/A2 HLA A2 stabilisation, BB7.2 FACS; 100 µM peptide; FIG 2(x)
[15] = biological target: HLA A2 on RMA-S/A2 cells (human); test: RMA-S/A2 HLA A2 stabilisation, BB7.2 FACS; 10 µM peptide; FIG 2(xi)
[16] = biological target: HLA A2 on RMA-S/A2 cells (human); test: RMA-S/A2 HLA A2 stabilisation, BB7.2 FACS; 10 µM peptide; ΔMean minus highest HepB ΔMean
[17] = biological target: HLA A2 on RMA-S/A2 cells (human); test: RMA-S/A2 HLA A2 stabilisation, BB7.2 FACS; 100 µM peptide; FIG 1(xxv)
[18] = biological target: HLA A2 on RMA-S/A2 cells (human); test: RMA-S/A2 HLA A2 stabilisation, BB7.2 FACS; 100 µM peptide; FIG 3(xx)

Binder: VQLAYVFDV (modifications not checked) [CH16]
High - B [1]: 0 | Mean 2 [2]: 433 | Δ Mean [2]: 232

Binder: SLCAQSSYV (modifications not checked) [CH50]
High - B [1]: 91 | Mean 2 [4]: 381 | Δ Mean [4]: 251

Binder: ALMLLNNYV (modifications not checked) [CH20]
High - B [1]: 138 | Mean 2 [6]: 578 | Δ Mean [6]: 384

Binder: KLLKDHFDL (modifications not checked) [CH34]
High - B [1]: 81 | Mean 2 [8]: 390 | Δ Mean [8]: 235

Binder: VLNLFFSAL (modifications not checked) [CH3]
High - B [10]: 0 | Mean 2 [11]: 419 | Δ Mean [11]: 224

Binder: YLTSYSPYV (modifications not checked) [CH15]
High - B [1]: 76 | Mean 2 [13]: 557 | Δ Mean [13]: 322

Binder: TLWGSFVDV (modifications not checked) [CH21]
High - B [1]: 121 | Mean 2 [14]: 440 | Δ Mean [14]: 275

Binder: WLFDLRFSV (modifications not checked) [CH22]
Mean 2 [15]: 390 | Δ Mean [15]: 227 | High - B [16]: 73

Binder: LLLTLGYAV (modifications not checked) [CH19]
High - B [1]: 0 | Mean 2 [17]: 436 | Δ Mean [17]: 240

Second part, the binder after the results:

High - B [1]: 89 | Mean 2 [3]: 396 | Δ Mean [3]: 249
Binder: SLLEEHPVV (modifications not checked) [CH52]

High - B [1]: 80 | Mean 2 [5]: 383 | Δ Mean [5]: 240
Binder: NLAGGILSV (modifications not checked) [CH56]

High - B [1]: 91 | Δ Mean [7]: 251
Binder: ALWKENQAL (modifications not checked) [CH54]

High - B [1]: 48 | Mean 2 [9]: 350 | Δ Mean [9]: 209
Binder: NLWSHYTDL (modifications not checked) [CH53]

High - B [1]: 98 | Mean 2 [12]: 411 | Δ Mean [12]: 258
Binder: ALWGHNVLL (modifications not checked) [CH55]

High - B [1]: 19 | Mean 2 [18]: 311 | Δ Mean [18]: 179
Binder: NLSRQAFFA (modifications not checked) [CH51]
